The values that follow come from article PMC3791466, “Structure of a helicase–helicase loader complex reveals insights into the mechanism of bacterial primosome assembly” (Nature Communications, 2013).

The target in assay [1] is T1, Bacillus subtilis helicase loader protein DnaI (B. subtilis), P06567.
T1 chain: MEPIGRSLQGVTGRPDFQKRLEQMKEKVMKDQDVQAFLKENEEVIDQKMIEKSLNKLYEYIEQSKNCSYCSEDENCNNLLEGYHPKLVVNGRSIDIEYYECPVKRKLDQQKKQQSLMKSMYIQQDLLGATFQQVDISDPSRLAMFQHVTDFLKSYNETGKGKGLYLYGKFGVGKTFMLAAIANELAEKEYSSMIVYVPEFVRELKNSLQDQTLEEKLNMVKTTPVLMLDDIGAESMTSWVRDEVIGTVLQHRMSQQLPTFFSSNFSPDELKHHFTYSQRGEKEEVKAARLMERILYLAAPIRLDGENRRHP
Put plainly: crystal structure; 570-kDa complex of BstDnaB, BsuDnaI and HBD of BstDnaG, molecular replacement, 7.5 Å; proteins in the crystals confirmed by tryptic digestion and mass spectrometry. Conditions: remark: other sources report otherwise.

Assay [2] deals with T1, Bacillus subtilis helicase loader …. In words: SEC-MALS; gel filtration and multiple-angle light scattering of BsuDnaI alone at 10 mg/ml. Conditions: remark: other sources report otherwise. On the technique in general: SEC sorts molecules by how far they enter the pores of the column.
Assay [3] concerns the target T2, Bacillus stearothermophilus helicase DnaB (B. stearothermophilus, UniProt Q9X4C9 1-454).
T2 construct: replicative DNA helicase DnaB of Bacillus stearothermophilus; N-terminal domain, linker and C-terminal RecA-fold domain; both the NTD and the CTD are in the structure; also called BstDnaB; hexameric helicase ring
T2 sequence: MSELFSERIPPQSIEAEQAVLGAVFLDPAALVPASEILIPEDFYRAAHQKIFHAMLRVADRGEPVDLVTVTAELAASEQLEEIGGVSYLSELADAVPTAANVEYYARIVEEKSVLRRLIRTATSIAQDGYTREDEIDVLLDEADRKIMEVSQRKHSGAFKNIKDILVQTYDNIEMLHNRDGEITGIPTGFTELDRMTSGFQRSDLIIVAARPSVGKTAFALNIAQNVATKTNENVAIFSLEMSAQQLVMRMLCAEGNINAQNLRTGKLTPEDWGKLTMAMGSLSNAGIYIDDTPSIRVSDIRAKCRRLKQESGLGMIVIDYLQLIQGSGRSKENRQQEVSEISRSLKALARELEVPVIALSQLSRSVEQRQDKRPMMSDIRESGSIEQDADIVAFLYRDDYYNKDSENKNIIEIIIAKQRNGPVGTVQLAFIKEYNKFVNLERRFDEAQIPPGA
In words: crystal structure; 570-kDa complex of BstDnaB, BsuDnaI and HBD of BstDnaG, molecular replacement, 7.5 Å; proteins in the crystals confirmed by tryptic digestion and mass spectrometry. Conditions: both partners purified.

Assay [4] deals with T2, Bacillus stearothermophilus helicase …. In words: crystal structure; another crystal form obtained under different conditions, content shown by molecular replacement. Conditions: both partners purified.

B1: Bacillus subtilis helicase loader protein DnaI (natural protein, B. subtilis)
chain: MEPIGRSLQGVTGRPDFQKRLEQMKEKVMKDQDVQAFLKENEEVIDQKMIEKSLNKLYEYIEQSKNCSYCSEDENCNNLLEGYHPKLVVNGRSIDIEYYECPVKRKLDQQKKQQSLMKSMYIQQDLLGATFQQVDISDPSRLAMFQHVTDFLKSYNETGKGKGLYLYGKFGVGKTFMLAAIANELAEKEYSSMIVYVPEFVRELKNSLQDQTLEEKLNMVKTTPVLMLDDIGAESMTSWVRDEVIGTVLQHRMSQQLPTFFSSNFSPDELKHHFTYSQRGEKEEVKAARLMERILYLAAPIRLDGENRRHP
notes: primosomal helicase loader DnaI of Bacillus subtilis 168, cloned by PCR from genomic DNA into NcoI-XhoI of pET21d(+); the reverse primer has no stop codon before XhoI, so a C-terminal His tag of the vector is surmised; No cleavage of the tag is described; also called BsuDnaI
A word on the stoichiometry N: it is a count of units in the complex or per binding partner. With B1, the results for the stoichiometry N in assay [1], in assay [2] and in assay [3] were 6, 2 and 3 loader dimers per helicase hexamer, respectively. Also, the percent monomer at 10 mg/ml in assay [2] stood at 93%.

B2: helicase-binding domain (HBD) of Bacillus stearothermophilus primase DnaG (domain or fragment, B. stearothermophilus)
chain: KLLPAFQNAERLLLAHMMRSRDVALVVQERIGGRFNIEEHRALAAYIYAFYEEGHEADPGALISRIPGELQPLASDVSLLLIADDVSEQELEDYIRHVLNRPKWLMLKVKEQEKTEAERRKDFLTAARIAKEMIEMKKMLSSS
notes: also called HBD of BstDnaG; HBD of primase DnaG
Regarding B2, the “stoichiometry N” value in assay [4] turned out to be 3 HBDs per DnaB hexamer; in assay [3], 3 HBDs per helicase hexamer.
